# Legend:
# Test in all cases: cell-based or functional assay
# [1] = target: DOR-Gqi5 (delta opiate receptor fused to Gqi5) (mouse)
# [2] = target: D114^3.32A/E339^6.30A/T343^6.34R-Gq5 (human)
# [3] = target: N393A/CAM-Gqi5 (human)
# Sequence of Myc-tagged D2R (unfused wild type dopamine D2 receptor, short isoform) (P14416 other isoform, or with tags, fused parts or gaps): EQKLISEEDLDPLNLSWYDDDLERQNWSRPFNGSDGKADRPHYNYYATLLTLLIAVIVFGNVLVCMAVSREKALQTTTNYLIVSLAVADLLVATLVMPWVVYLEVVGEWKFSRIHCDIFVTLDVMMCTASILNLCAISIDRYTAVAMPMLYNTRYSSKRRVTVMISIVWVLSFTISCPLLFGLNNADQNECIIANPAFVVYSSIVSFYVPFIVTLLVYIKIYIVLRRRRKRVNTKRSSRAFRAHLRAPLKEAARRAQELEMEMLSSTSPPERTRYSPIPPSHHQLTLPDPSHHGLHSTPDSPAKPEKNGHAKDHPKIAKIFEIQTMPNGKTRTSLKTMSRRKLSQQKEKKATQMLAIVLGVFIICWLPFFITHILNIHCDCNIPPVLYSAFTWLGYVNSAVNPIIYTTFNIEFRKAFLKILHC
Substance,"activation at 5 nM DPDPE, aequorin luminescence [1] [% activation]","maximal activity, aequorin luminescence [2]","potency of quinpirole in the presence of 5 nM DPDPE, aequorin luminescence [1] [fold]",aequorin luminescence on quinpirole (functional complementation) [3] [fold]
DPDPE (peptide),10,–,–,–
"Myc-tagged D2R (unfused wild type dopamine D2 receptor, short isoform) (from UniProt P14416 2-443)",–,49.6,10,3

# From US20110160081A1, “FUNCTIONAL COMPLEMENTATION ASSAY FOR DEFINED GPCR OLIGOMERS” (priority 2008, published 2011)
